T1: recombinant human Nectin-4-His protein (human, UniProt Q96NY8 32-349)
T1 construct: Rescreening antigen and bought ELISA antigen are treated as one molecule; also called human Nectin-4-His tagged; Ag1; not shown: His tag
T1 sequence: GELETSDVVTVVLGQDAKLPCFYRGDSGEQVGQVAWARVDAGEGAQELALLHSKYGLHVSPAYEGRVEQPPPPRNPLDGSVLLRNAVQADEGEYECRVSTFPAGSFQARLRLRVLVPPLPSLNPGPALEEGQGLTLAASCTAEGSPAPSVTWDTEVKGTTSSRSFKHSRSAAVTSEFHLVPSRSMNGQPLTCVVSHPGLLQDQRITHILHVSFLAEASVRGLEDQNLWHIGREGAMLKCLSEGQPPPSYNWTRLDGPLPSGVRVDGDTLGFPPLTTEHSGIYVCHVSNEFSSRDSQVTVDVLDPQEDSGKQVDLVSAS

T2: cynomolgus Nectin-4 His tagged (cynomolgus, UniProt A0A2K5WES1 32-349)
T2 construct: also called Ag2
T2 sequence: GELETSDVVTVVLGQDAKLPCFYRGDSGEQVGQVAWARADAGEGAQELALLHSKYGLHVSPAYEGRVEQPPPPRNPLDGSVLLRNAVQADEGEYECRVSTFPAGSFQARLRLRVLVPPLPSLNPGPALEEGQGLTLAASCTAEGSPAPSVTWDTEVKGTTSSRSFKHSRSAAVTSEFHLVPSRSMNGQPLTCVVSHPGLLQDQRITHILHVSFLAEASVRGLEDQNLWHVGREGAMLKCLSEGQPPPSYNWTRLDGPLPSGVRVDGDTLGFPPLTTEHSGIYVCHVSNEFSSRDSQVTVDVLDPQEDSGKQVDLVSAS

T3: human nectin-4 protein expressed on the surface of cells (human, UniProt Q96NY8 32-510)
T3 sequence: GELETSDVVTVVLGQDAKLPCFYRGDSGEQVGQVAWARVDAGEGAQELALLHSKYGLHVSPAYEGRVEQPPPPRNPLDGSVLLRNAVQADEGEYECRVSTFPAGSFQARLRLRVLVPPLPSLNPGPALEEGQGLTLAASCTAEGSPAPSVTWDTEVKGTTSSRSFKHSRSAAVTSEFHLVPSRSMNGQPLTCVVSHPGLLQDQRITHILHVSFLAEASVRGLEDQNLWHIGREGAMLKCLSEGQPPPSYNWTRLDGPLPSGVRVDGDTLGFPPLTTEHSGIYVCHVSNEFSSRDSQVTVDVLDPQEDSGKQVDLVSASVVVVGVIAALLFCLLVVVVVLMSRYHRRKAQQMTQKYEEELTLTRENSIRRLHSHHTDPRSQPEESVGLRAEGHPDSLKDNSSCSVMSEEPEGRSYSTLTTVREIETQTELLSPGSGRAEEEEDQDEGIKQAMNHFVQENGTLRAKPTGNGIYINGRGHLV

B1: Nectin-4 5D9H/5D9L (hybridoma supernatant) (antibody, V domains shown)
VH: QVQLKQSGPGLVQPSQSLSITCTVSGFSLTNYGVHWVRQSPGKGLEWLGVIWSGGSTDYNAAFVSRLSISRDNSKSQVFFKMNSLQADDTAIYYCARSGKWYYFDYWGQGTTLTVSS
VL: DIQMTQSPASLSVSVGETVTITCRASENIYSNLAWYQQKQGKSPQLLVYAATNLADGVPSRFSGSGSGTQYSLKINSLQSEDFGSYYCQHFWGTPTFGGGTKLEIK
notes: Mouse antibody in hybridoma supernatant
B2: Nectin-4 12E11H/12E11L (hybridoma supernatant) (antibody, V domains shown)
VH: QVQLKQSGPGLVQPSQSLSITCTVSGFSLTTYGVHWVRQSPGKGLEWLGVIWSGGSTDCNGAFISRLSIIKDNSKSQVFFKMNSLQADDTAIYYCARMTHWYFDVWGTGTTVTVSS
VL: DIVMTQSQKFMSTTVGDRVSITCKASQNVNTAVAWYQQKPGQSPKLLIYSASYRYTGVPDRFTGSGSGTDFTLTISNMQSEDLADYFCQQYSNYPLTFGAGTKLELK
notes: as for B1
B3: Nectin-4 3C12H/3C12L (hybridoma supernatant) (antibody, V domains shown)
VH: QVQLKQSGPGLVQPSQSLSITCTVSGFSLTTYGVHWVRQSPGKGLEWLGVIWSGGNTDYNAAFISRLSISKDNSKSQVFFKMNSLQADDTAIYYCARMTHWYFDVWGTGTTVTVSS
VL: DIVMTQSQKFMSTTVGDRVSITCKASQNVVTAVAWYQQKPGQSPKLLIYSASNRYTGVPDRFTGSGSGTDFTLTISYMQSEDLADYFCQQYSSYPLTFGAGTKLELK
notes: as for B1
B4: Nectin-4 5D9 VH4/VL5 (antibody, V domains shown)
VH: QVQLQQSGPGLVKPSETLSLTCTVSGFSLTNYGVHWVRQPPGKGLEWLGVIWSGGSTDYNPSLKSRLTISRDTSKNQVSFKMSSVTAADTAVYYCARSGKWYYFDYWGQGTLVTVSS
VL: DIQMTQSPSSLSASVGDRVTITCRASQSIYSNLAWYQQKPGKAPKLLVYAATNLQSGVPSRFSGSGSGTDFTLTISSLQPEDFATYYCQHFWGTPTFGGGTKVEIK
notes: Humanized; also called 5D9 VH variant 4 / 5D9 VL variant 5; Nectin-4 VH4/VL5
B5: Nectin-4 5D9 VH4/VL1 (antibody, V domains shown)
VH: QVQLQQSGPGLVKPSETLSLTCTVSGFSLTNYGVHWVRQPPGKGLEWLGVIWSGGSTDYNPSLKSRLTISRDTSKNQVSFKMSSVTAADTAVYYCARSGKWYYFDYWGQGTLVTVSS
VL: DIQMTQSPASLSASVGDTVTITCRASQNIYSNLAWYQQKQGKSPQLLVYAATNLADGVPSRFSGSGSGTQYTLKINSLQSEDFGTYYCQHFWGTPTFGGGTKVEIK
notes: Humanized; also called 5D9 VH variant 4 / 5D9 VL variant 1; Nectin-4 VH4/VL1
B6: Nectin-4 5D9 VH4/VL4 (antibody, V domains shown)
VH: QVQLQQSGPGLVKPSETLSLTCTVSGFSLTNYGVHWVRQPPGKGLEWLGVIWSGGSTDYNPSLKSRLTISRDTSKNQVSFKMSSVTAADTAVYYCARSGKWYYFDYWGQGTLVTVSS
VL: DIQMTQSPSSLSASVGDRVTITCRASENIYSNLAWYQQKPGKAPKLLVYAATNLADGVPSRFSGSGSGTDYTLTISSLQPEDFATYYCQHFWGTPTFGGGTKVEIK
notes: Humanized; also called 5D9 VH variant 4 / 5D9 VL variant 4
B7: Nectin-4 5D9 VH4/VL2 (antibody, V domains shown)
VH: QVQLQQSGPGLVKPSETLSLTCTVSGFSLTNYGVHWVRQPPGKGLEWLGVIWSGGSTDYNPSLKSRLTISRDTSKNQVSFKMSSVTAADTAVYYCARSGKWYYFDYWGQGTLVTVSS
VL: DIQMTQSPSSLSASVGDTVTITCRASQNIYSNLAWYQQKQGKAPKLLVYAATNLADGVPSRFSGSGSGTDFTLKINSLQPEDFATYYCQHFWGTPTFGGGTKVEIK
notes: Humanized; also called 5D9 VH variant 4 / 5D9 VL variant 2
B8: Nectin-4 5D9 VH2/VL4 (antibody, V domains shown)
VH: QVQLQESGPGLVKPSETLSLTCTVSGFSITNYGVHWIRQPPGKGLEWLGVIWSGGSTDYNASLVSRVTISRDTSKSQFFLKLNSVQADDTAVYYCARSGKWYYFDYWGQGTTVTVSS
VL: DIQMTQSPSSLSASVGDRVTITCRASENIYSNLAWYQQKPGKAPKLLVYAATNLADGVPSRFSGSGSGTDYTLTISSLQPEDFATYYCQHFWGTPTFGGGTKVEIK
notes: Humanized; also called 5D9 VH variant 2 / 5D9 VL variant 4
B9: Nectin-4 5D9 VH5/VL1 (antibody, V domains shown)
VH: QVQLQESGPGLVKPSETLSLTCTVSGGSLTNYGVHWVRQPPGKGLEWIGVIWSGGSTNYNPSLKSRVTISRDTSKNQVSLKLSSVTAADTAVYYCARSGKWYYFDYWGQGTLVTVSS
VL: DIQMTQSPASLSASVGDTVTITCRASQNIYSNLAWYQQKQGKSPQLLVYAATNLADGVPSRFSGSGSGTQYTLKINSLQSEDFGTYYCQHFWGTPTFGGGTKVEIK
notes: Humanized; also called 5D9 VH variant 5 / 5D9 VL variant 1
B10: Nectin-4 5D9 VH3/VL1 (antibody, V domains shown)
VH: QVQLQESGPGLVKPSETLSLTCTVSGGSITNYGVHWIRQPPGKGLEWLGVIWSGGSTDYNPSLKSRVTISVDTSKNQFSLKLSSVTAADTAVYYCARSGKWYYFDYWGQGTLVTVSS
VL: DIQMTQSPASLSASVGDTVTITCRASQNIYSNLAWYQQKQGKSPQLLVYAATNLADGVPSRFSGSGSGTQYTLKINSLQSEDFGTYYCQHFWGTPTFGGGTKVEIK
notes: Humanized; also called 5D9 VH variant 3 / 5D9 VL variant 1
B11: Nectin-4 5D9 VH5/VL5 (antibody, V domains shown)
VH: QVQLQESGPGLVKPSETLSLTCTVSGGSLTNYGVHWVRQPPGKGLEWIGVIWSGGSTNYNPSLKSRVTISRDTSKNQVSLKLSSVTAADTAVYYCARSGKWYYFDYWGQGTLVTVSS
VL: DIQMTQSPSSLSASVGDRVTITCRASQSIYSNLAWYQQKPGKAPKLLVYAATNLQSGVPSRFSGSGSGTDFTLTISSLQPEDFATYYCQHFWGTPTFGGGTKVEIK
notes: Humanized; also called 5D9 VH variant 5 / 5D9 VL variant 5
B12: Nectin-4 5D9 VH5/VL2 (antibody, V domains shown)
VH: QVQLQESGPGLVKPSETLSLTCTVSGGSLTNYGVHWVRQPPGKGLEWIGVIWSGGSTNYNPSLKSRVTISRDTSKNQVSLKLSSVTAADTAVYYCARSGKWYYFDYWGQGTLVTVSS
VL: DIQMTQSPSSLSASVGDTVTITCRASQNIYSNLAWYQQKQGKAPKLLVYAATNLADGVPSRFSGSGSGTDFTLKINSLQPEDFATYYCQHFWGTPTFGGGTKVEIK
notes: Humanized; also called 5D9 VH variant 5 / 5D9 VL variant 2
B13: Nectin-4 5D9 VH5/VL3 (antibody, V domains shown)
VH: QVQLQESGPGLVKPSETLSLTCTVSGGSLTNYGVHWVRQPPGKGLEWIGVIWSGGSTNYNPSLKSRVTISRDTSKNQVSLKLSSVTAADTAVYYCARSGKWYYFDYWGQGTLVTVSS
VL: DIQMTQSPSSLSASVGDRVTITCRASQSIYSNLAWYQQKPGKAPKLLVYAATNLASGVPSRFSGSGSGTDFTLTISSLQPEDFATYYCQHFWGTPTFGGGTKVEIK
notes: Humanized; also called 5D9 VH variant 5 / 5D9 VL variant 3
B14: Nectin-4 5D9 VH5/VL4 (antibody, V domains shown)
VH: QVQLQESGPGLVKPSETLSLTCTVSGGSLTNYGVHWVRQPPGKGLEWIGVIWSGGSTNYNPSLKSRVTISRDTSKNQVSLKLSSVTAADTAVYYCARSGKWYYFDYWGQGTLVTVSS
VL: DIQMTQSPSSLSASVGDRVTITCRASENIYSNLAWYQQKPGKAPKLLVYAATNLADGVPSRFSGSGSGTDYTLTISSLQPEDFATYYCQHFWGTPTFGGGTKVEIK
notes: Humanized; also called 5D9 VH variant 5 / 5D9 VL variant 4

How the values were obtained:
[1] = molecular target: T1, recombinant human Nectin-4-His protein; experiment: ELISA, hybridoma supernatant
[2] = molecular target: T2, cynomolgus Nectin-4 His tagged; experiment: ELISA, hybridoma supernatant
[3] = molecular target: T1, recombinant human Nectin-4-His protein; experiment: ELISA, coated antigen
[4] = molecular target: T3, human nectin-4 protein expressed on the …; experiment: cell-based or functional assay

Binder | ELISA signal [1] | ELISA signal [2] | EC50 [3] [µM] | Cell kill IC50, HekNectin4 [4] [µM] | Cell kill IC50, MDA-MB468 [4] [µM] | Cell kill IC50, SKBR3 [4] [µM]
B1 | 3.08 | 3.32 |  |  |  | 
B2 | 3.21 | 3.44 |  |  |  | 
B3 | 3.2 | 3.45 |  |  |  | 
B4 |  |  | 0.000195 | 0.000269 | 0.00393 | 0.00726
B5 |  |  | 0.000212 | 0.000182 | 0.00108 | 0.00385
B6 |  |  | 0.000232 | 0.000102 | 0.00337 | 0.00945
B7 |  |  | 0.000236 | 0.00029 | 0.00313 | 0.00495
B8 |  |  | 0.000765 | 0.0178 | 0.027 | 0.0185
B9 |  |  | 0.0334 | 0.0303 | 0.019 | 0.0133
B10 |  |  | > 0.02 | 0.0733 | 0.0416 | 0.0469
B11 |  |  | 0.0561 | 0.0335 | 0.024 | 0.0178
B12 |  |  | 0.00206 | 0.0496 | 0.0175 | 0.0106
B13 |  |  | 0.000702 | 0.0156 | 0.0166 | 0.00986
B14 |  |  | 0.0115 | 0.0221 | 0.011 | 0.00953
